# Laboratory results reported in US11844843 (DYNE THERAPEUTICS, dated 2023).
# Substitutions are numbered along the chain they refer to. Names and notes keep the numbering of the source.
# T1: recombinant cynomolgus monkey (Macaca fascicularis) TfR1 (cynomolgus monkey (Macaca fascicularis), UniProt Q5RDH6 87-760 (Pongo abelii entry), limits assumed)
# T1 construct: Recombinant protein; also called cTfR1; cyTfR1
# T1 chain: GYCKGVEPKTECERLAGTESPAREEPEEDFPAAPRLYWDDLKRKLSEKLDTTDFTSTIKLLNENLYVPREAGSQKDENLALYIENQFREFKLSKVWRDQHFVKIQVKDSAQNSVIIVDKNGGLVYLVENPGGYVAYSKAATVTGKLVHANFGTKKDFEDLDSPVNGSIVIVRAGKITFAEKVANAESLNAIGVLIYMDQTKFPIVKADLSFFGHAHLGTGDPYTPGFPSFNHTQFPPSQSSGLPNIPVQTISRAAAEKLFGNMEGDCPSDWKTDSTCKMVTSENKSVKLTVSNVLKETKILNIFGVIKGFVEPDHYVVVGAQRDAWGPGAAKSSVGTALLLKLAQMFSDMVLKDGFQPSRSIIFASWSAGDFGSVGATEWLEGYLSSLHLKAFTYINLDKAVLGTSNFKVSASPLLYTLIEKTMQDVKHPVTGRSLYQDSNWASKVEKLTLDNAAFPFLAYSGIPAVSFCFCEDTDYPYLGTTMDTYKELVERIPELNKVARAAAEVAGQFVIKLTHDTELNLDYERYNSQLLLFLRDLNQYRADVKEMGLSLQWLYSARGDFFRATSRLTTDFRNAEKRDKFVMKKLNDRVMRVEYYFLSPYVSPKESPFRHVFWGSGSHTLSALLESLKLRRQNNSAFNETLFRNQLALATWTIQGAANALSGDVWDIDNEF
# B1: conjugate of humanized anti-TfR Fab 3A4 VH3/Vκ4 with DMPK-targeting oligonucleotide ASO300 (Fab, V domains shown)
# VH: EVQLVQSGSELKKPGASVKVSCTASGFNIKDDYMYWVRQPPGKGLEWIGWIDPENGDTEYASKFQDRVTVTADTSTNTAYMELSSLRSEDTAVYYCTLWLRRGLDYWGQGTLVTVSS
# VL: DIVMTQSPLSLPVTPGEPASISCRSSKSLLHSNGYTYLFWFQQRPGQSPRLLIYRMSNLASGVPDRFSGSGSGTDFTLKISRVEAEDVGVYYCMQHLEYPFTFGGGTKVEIKR
# modifications: oligonucleotide ASO300 conjugated to the Fab via linker; residue and chain not stated
# notes: also called 3A4 (VH3/Vk4) conjugate
# B2: conjugate of humanized anti-TfR Fab 5H12 VH5 (C33D)/Vκ4 with DMPK-targeting oligonucleotide ASO300 (Fab, V domains shown)
# VH: QVQLVQSGAEVKKPGASVKVSCKASGYSFTDYDINWVRQAPGQGLEWMGWIYPGSGNTRYSERFKGRVTITRDTSASTAYMELSSLRSEDTAVYYCAREDYYPYHGMDYWGQGTLVTVSS
# VL: DIVMTQSPDSLAVSLGERATINCRASESVDGYDNSFMHWYQQKPGQPPKLLIFRASNLESGVPDRFSGSGSGTDFTLTISSLQAEDVAVYYCQQSSEDPWTFGQGTKLEIKR
# modifications: oligonucleotide ASO300 conjugated to the Fab via linker; residue and chain not stated
# notes: also called 5H12 (VH5-C33D/Vk4) conjugate
# B3: conjugate of humanized anti-TfR Fab 5H12 VH5 (C33Y)/Vκ3 with DMPK-targeting oligonucleotide ASO300 (Fab, V domains shown)
# VH: B2 VH with D33Y
# VL: B2 VL with M4L, G72R
# modifications: oligonucleotide ASO300 conjugated to the Fab via linker; residue and chain not stated
# notes: also called 5H12 (VH5-C33Y/Vk3) conjugate
# B4: humanized anti-TfR Fab 3A4 VH3/Vκ4 (Fab, V domains shown)
# VH: B1 VH
# VL: B1 VL
# notes: also called 3A4 (VH3/Vk4)
# B5: humanized anti-TfR Fab 5H12 VH5 (C33D)/Vκ4 (Fab, V domains shown)
# VH: B2 VH
# VL: B2 VL
# notes: also called 5H12 (VH5-C33D/Vk4)
# B6: humanized anti-TfR Fab 3M12 VH3/Vκ3 (Fab, V domains shown)
# VH: QVQLQESGPGLVKPSQTLSLTCSVTGYSITSGYYWNWIRQPPGKGLEWMGYITFDGANNYNPSLKNRVSISRDTSKNQFSLKLSSVTAEDTATYYCTRSSYDYDVLDYWGQGTTVTVSS
# VL: DIQMTQSPSSLSASVGDRVTITCRASQDISNFLNWYQQKPGQPVKLLIYYTSRLHSGVPSRFSGSGSGTDFTLTISSLQPEDFATYYCQQGHTLPYTFGQGTKLEIKR
# notes: also called 3M12 (VH3/Vk3)
# B7: humanized anti-TfR Fab 3M12 VH4/Vκ2 (Fab, V domains shown)
# VH: B6 VH with S23T, M49I
# VL: B6 VL with Y87F
# notes: also called 3M12 (VH4/Vk2)
# B8: 3-A4 mouse monoclonal anti-TfR antibody (antibody, V domains shown)
# VH: EVQLQQSGAELVRPGASVKLSCTASGFNIKDDYMYWVKQRPEQGLEWIGWIDPENGDTEYASKFQDKATVTADTSSNTAYLQLSSLTSEDTAVYYCTLWLRRGLDYWGQGTSVTVSS
# VL: DIVMTQAAPSVPVTPGESVSISCRSSKSLLHSNGYTYLFWFLQRPGQSPQLLIYRMSNLASGVPDRFSGSGSGTAFTLRISRVEAEDVGVYYCMQHLEYPFTFGGGTKLEIK
# notes: Mouse monoclonal IgG; also called 3-A04
# B9: 5-H12 mouse monoclonal anti-TfR antibody (antibody, V domains shown)
# VH: QIQLQQSGPELVRPGASVKISCKASGYSFTDYCINWVNQRPGQGLEWIGWIYPGSGNTRYSERFKGKATLTVDTSSNTAYMQLSSLTSEDSAVYFCAREDYYPYHGMDYWGQGTSVTVSS
# VL: DIVLTQSPTSLAVSLGQRATISCRASESVDGYDNSFMHWYQQKPGQPPKLLIFRASNLESGIPARFSGSGSRTDFTLTINPVEAADVATYYCQQSSEDPWTFGGGTKLEIK
# notes: Mouse monoclonal IgG
# B10: 3-M12 mouse monoclonal anti-TfR antibody (antibody, V domains shown)
# VH: DVQLQESGPGLVKPSQSLSLTCSVTGYSITSGYYWNWIRQFPGNKLEWMGYITFDGANNYNPSLKNRISITRDTSKNQFFLKLTSVTTEDTATYYCTRSSYDYDVLDYWGQGTTLTVSS
# VL: DIQMTQTTSSLSASLGDRVTISCRASQDISNFLNWYQQRPDGTVKLLIYYTSRLHSGVPSRFSGSGSGTDFSLTVSNLEQEDIATYFCQQGHTLPYTFGGGTKLEIK
# notes: Mouse monoclonal IgG
# Molecular target: T2, recombinant human TfR1 (transferrin receptor protein 1) (human, UniProt P02786 89-760)
# T2 construct: Recombinant protein in SPR and ELISA; they were assigned to this molecule; also called hTfR1; huTfR1
# Assay: ELISA, recombinant TfR1 coated, Fab-ASO300 conjugate (row 'Conjugate binding affinity ELISA')
# Target sequence in this assay (P02786 89-760 limits assumed): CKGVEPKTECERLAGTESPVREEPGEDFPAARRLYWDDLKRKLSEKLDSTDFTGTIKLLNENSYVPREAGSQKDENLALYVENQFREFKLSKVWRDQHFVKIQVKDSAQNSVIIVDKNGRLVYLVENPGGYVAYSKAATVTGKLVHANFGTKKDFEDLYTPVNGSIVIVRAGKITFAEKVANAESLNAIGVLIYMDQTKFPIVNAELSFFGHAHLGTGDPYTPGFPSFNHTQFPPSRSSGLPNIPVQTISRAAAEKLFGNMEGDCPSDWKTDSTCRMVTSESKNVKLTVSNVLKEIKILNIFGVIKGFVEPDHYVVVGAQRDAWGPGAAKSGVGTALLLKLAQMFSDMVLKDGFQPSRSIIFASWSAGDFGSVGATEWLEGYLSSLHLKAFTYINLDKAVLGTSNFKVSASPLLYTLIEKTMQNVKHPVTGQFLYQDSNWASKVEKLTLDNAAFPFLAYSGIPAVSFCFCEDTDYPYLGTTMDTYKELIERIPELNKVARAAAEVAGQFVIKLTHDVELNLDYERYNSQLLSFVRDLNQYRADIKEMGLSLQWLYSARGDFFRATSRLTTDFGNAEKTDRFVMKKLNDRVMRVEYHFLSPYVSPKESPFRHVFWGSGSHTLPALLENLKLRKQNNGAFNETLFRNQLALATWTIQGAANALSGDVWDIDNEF
row,Binder,EC50
1,B1,2.8 nM
2,B2,110 nM
3,B3,33.4 nM

# Molecular target: T1, recombinant cynomolgus monkey (Macaca …)
# Assay: as above
row,Binder,EC50
1,B1,7.6 nM
2,B2,10.2 nM
3,B3,2.3 nM

# Molecular target: T2, recombinant human TfR1 (transferrin …)
# Assay: Table 14, unconjugated Fab, d0; method not named (values equal ELISA row of Table 13)
# Target sequence in this assay (P02786 89-760 limits assumed): as above
row,Binder,Binding affinity
1,B4,1.5 nM
2,B5,6 nM
3,B6,0.6 nM
4,B7,0.4 nM

# Molecular target: T1, recombinant cynomolgus monkey (Macaca …)
# Assay: as above
row,Binder,Binding affinity
1,B4,122 nM
2,B5,3.5 nM
3,B6,4.7 nM
4,B7,1.4 nM

# Molecular target: T2, recombinant human TfR1 (transferrin …)
# Assay: Table 14, Fab-ASO300 conjugate; method not named
# Target sequence in this assay (P02786 89-760 limits assumed): as above
row,Binder,DMPK oligo conjugate binding
1,B1,2.84 nM
2,B2,110 nM

# Molecular target: T1, recombinant cynomolgus monkey (Macaca …)
# Assay: Table 14, Fab-ASO300 conjugate; method not named
row,Binder,DMPK oligo conjugate binding
1,B1,7.59 nM
2,B2,10.2 nM

# Molecular target: T2, recombinant human TfR1 (transferrin …)
# Assay: Table 14, unconjugated Fab, d9 (after 9 days at 40 C); method not named
# Target sequence in this assay (P02786 89-760 limits assumed): as above
row,Binder,Binding affinity
1,B4,0.46 nM
2,B5,92.3 nM
3,B6,1.49 nM
4,B7,0.5 nM

# Molecular target: T1, recombinant cynomolgus monkey (Macaca …)
# Assay: as above
row,Binder,Binding affinity
1,B4,878 nM
2,B5,0.63 nM
3,B6,15.6 nM
4,B7,5.01 nM

# Molecular target: T2, recombinant human TfR1 (transferrin …)
# Assay: ELISA, recombinant TfR1 coated, unconjugated Fab (row 'Fab binding affinity ELISA')
# Target sequence in this assay (P02786 89-760 limits assumed): as above
row,Binder,EC50
1,B4,1.5 nM
2,B5,6 nM
3,B6,0.6 nM
4,B7,0.4 nM

# Molecular target: T1, recombinant cynomolgus monkey (Macaca …)
# Assay: as above
row,Binder,EC50
1,B4,122 nM
2,B5,3.5 nM
3,B6,4.7 nM
4,B7,1.4 nM

# Molecular target: T2, recombinant human TfR1 (transferrin …)
# Assay: Carterra LSA SPR, 25 C; IgG captured, hTfR1 as analyte; 1:1 fit
# Method: Selected anti-TfR1 antibodies were tested for their binding affinity to human TfR1 for measurement of Ka (association rate constant). Kd (dissociation rate constant), and K_D (affinity). […] The binding experiment was performed on Carterra LSA at 25° C. An anti-mouse IgG and anti-human IgG antibody "lawn" was prepared on a HC30M chip by amine coupling. The IgGs were captured on the chip. Dilution series of hTfR1, cyTfR1, and hTfR2 were injected to the chip for binding (starting from 1000 nM, 1:3 dilution, 8 concentrations).
# Binding data were referenced by subtracting the responses from a buffer analyte injection and globally fitting to a 1:1 Langmuir binding model for estimate of Ka (association rate constant), Kd (dissociation rate constant), and K_D (affinity) using the Carterra™ Kinetics software, 5-6 concentrations were used for curve fitting.
Binder,Kd,kon
B8,0.436 nM,447000 M⁻¹ s⁻¹
B9,208 nM,66700 M⁻¹ s⁻¹
B10,0.768 nM,166000 M⁻¹ s⁻¹

# Molecular target: T2, recombinant human TfR1 (transferrin …)
# Assay: Biacore, d0; TfR1 species not stated
# Target sequence in this assay (P02786 89-760 limits assumed): as above
row,Binder,Kd
1,B4,1.5 nM
2,B5,0.991 nM
3,B6,0.345 nM
4,B7,0.396 nM

# Molecular target: T2, recombinant human TfR1 (transferrin …)
# Assay: Avg KD, antibody alone; method not stated in Table 11
row,Binder,Kd
1,B8,0.436 nM
2,B9,202 nM
3,B10,0.768 nM

# Molecular target: T1, recombinant cynomolgus monkey (Macaca …)
# Assay: as above
row,Binder,Kd
1,B8,2.32 nM
2,B9,12 nM
3,B10,5.18 nM

# Molecular target: T2, recombinant human TfR1 (transferrin …)
# Assay: kinetic analysis (Biacore), Table 7; TfR1 species not stated
Binder,Kd,koff,kon
B4,1.5 nM,,
B5,0.991 nM,0.000672 s⁻¹,678000 M⁻¹ s⁻¹
B6,0.345 nM,8.34e-05 s⁻¹,242000 M⁻¹ s⁻¹
B7,0.396 nM,9.98e-05 s⁻¹,252000 M⁻¹ s⁻¹

# Molecular target: T2, recombinant human TfR1 (transferrin …)
# Assay: Biacore, d25; TfR1 species not stated
row,Binder,Kd
1,B4,1.35 nM
2,B5,3.01 nM
3,B6,0.515 nM
4,B7,0.51 nM
